B1: Ab 25 (Fc fusion)
VH: QVQLVQSGGGLVQPGGSLRLSCAASGFTFSSYWMSWVRQAPGKGLEWVANIKQDGSEKYYVDSVKGRFTISRDNAKNSLYLQMNSLRAEDTAVYYCARGFYYYGAFDIWGQGTTVTVSS
VL: NFMLTQPHSVSESPGKTVTISCTGSSGSIASNYVQWYQQRPGSAPTTVIYEDNQRPSGVPDRFSGSIGSSSNSASLTISGLKTEDEADYYCQSYDSSNHWVFGGGTKLTVL
B2: Ab 20 (scFv, V domains shown)
VH: QVQLVQSGGGSVKPGGSLRLSCAASGYRLSDYYMHWVRQAPGKGLEWVANIKQDGSEKYYVDSVKGRFTISRDNAKNSLYLQMNSLRAEDTAVYYCARVRGWSRGYFDYWGQGTLVTVSS
VL: NFMLTQPHSVSESPGKTVTISCTGSSGSIASNYVQWYQQRPGSAPTTVIYEDNQRPSGVPDRFSGSIDSSSNSASLLISGLKTEDEADYYCQSYDSSNHWVFGGGTKLTVL
B3: Ab 13 (scFv, V domains shown)
VH: QVTLKESGPKLVKPTQTLTLTCTFSGFSLSTSGVGVGWIRQPPGKALEWLALIYWDDDKRYSPSLKSRLTIAKDTSKYQVVLTMTNMDPVDTATYYCARISGSGYFYPFDIWGQGTMVTVSA
VL: NFMLTQPHSVSESPGKTVTISCTRSSGSIASNYVQWYQQRPGSAPTTVIYEDNQRPSGVPDRFSGSIDSSSNSASLTISGLKTEDEADYYCQSYDSSNLWVFGGGTKLTVL
B4: Ab 17 (scFv, V domains shown)
VH: QVQLVQSGGGVVQPGRSLRLSCAASGFTFDDYAMHWVRQVPGKGLEWVSGIDWNSGVIGYADSVKGRFTISRDNVKNSLYLQMNSLRTEDSALYYCAKDIGPGGSGSYYAFDIWGQGTTVTVSS
VL: QSALTQPASVSGSPGQSITISCTGTSSDVGGSKYVSWYQQHPGKAPKVMIYDVTKRPSGVPDRFSGSKSGNTASLTISGLQAEDEADYYCAAWDDSLNGVVFGGGTKLTVL
B5: Ab 18 (scFv, V domains shown)
VH: EVQLVQSGGGVVQPGRSLRVSCAASGFSFSRYGMHWVRQAPGKGLEWVAFIRHDGSKKYYADSVEGRFTISRDNSRNTVSLEMNSLRGEDTAVYYCAKDGRLEAALDDWGQGTLVTVSS
VL: NFMLTQPHSMSGSAGKTVTVSCIRSSGSIANNFVQWYQQRPGSAPTTVIYEDNQRPSGVPDRFSGSIDSSSNSASLTISGLKTEDEADYYCQSYDSSNLVFGGGTRLTVL
B6: Ab 15 (Fc fusion)
VH: QVQLVQSGGGLVKPGRSLRLSCTASGFTFGDYAMSWFRQAPGKGLEWVGFIRSKAYGGTTGYAASVKGRFTISRDDSKSIAYLQMNSLKTEDTAVYYCTTADDDMDVWGKGTTVTVSS
VL: NFMLTQPHSVSESPGKTVTISCTRSSGTIASNYVQWYQQRPGSAPTTVIYEDNQRPSGVPDRFSGSIDRSSNSASLTISGLTPDDEADYYCQSYDTSNHYVFGTGTKVTVL
B7: Ab 16 (scFv, V domains shown)
VH: QVQLVQSGGGVVQPGRSLRLSCAASGFTFSNYGMHWVRQAPGKGLEWVALIWERGSKKDYADSVKGRFTVSRDNSKNTLYLQMNSLRPEDTAVYFCAREGISMTGAEYFQHWGQGTLVTVSS
VL: QSVLTQPPSVSGSPGQRVTMSCTGSSSNIGAGYDVHWYQQVPGAAPRLLIYGTNNRPSGVPDRFSGSKSGTSASLTITGLQAEDEADYYCQSYDNSLTDPYVFGTGTKVTVL
B8: Ab 21 (scFv, V domains shown)
VH: QVQLVQSGGGLVQPGGSLRLSCATSGFTFDDYAMHWVRQAPGKGLEWVSGISWNSGSIGYVDSVKGRFTISRDNRNNKVYLQMNNLRAEDTAVYYCARDWWGSIDHWGLGTLVTVSS
VL: QSALTQPRSVSGSPGQSVTISCTGTSSDVGGYDYVSWYQQHPGKAPKLIIYDVSKRPSGVPDRFSGSKSGNTASLTVSGLQAEDEADYYCSSYTSSSPVVFGGGTKLTVL
B9: Ab 27 (Fc fusion)
VH: QVQLVQSGTEVKKPGASVKVSCKASGYSFTGSHLHWVRQAPGQGLEWMGWINPDSGVINYAQKFQGRVTLTRDTSISTAYMELSGLRSDDTAVYYCARDKAIGYVWALDYWGQGTLVTVSS
VL: QSALTQPPSVSGSPGQSVTISCTGTSSDVGTYNRVSWYQQPPGKAPKLMIYEVSNRPSGVSNRFSGSKSGNTASLTISGLQAEDEADYYCSSYTRTFTYVFGTGTKVTVL
B10: Ab 23 (Fc fusion)
VH: EVQLVQSGAEVKKPGSSVKVSCRSSGGTFSTYGITWVRQAPGQGLEWMGRIIPSLGIPNYAQKFQGRVTITADTSVSTAWMELSSLESDDTAIYYCARENIDLATNDFWGQGTLVTVSS
VL: QSALTQPPSASGSPGQSVTISCTGTSRDIGAYGYVSWYQQVPGKAPKLIIYEVRNRPSGVSSRFSGSKSGNTASLTISGLQAEDEADYYCSSYTSSSTLDVVFGGGTKLTVL

What follows are binders tested against RBD-biotin (assay: BLI).

Q: For B1, which Kd is on record?
A: 0.223 nM

Q: For B2, which Kd is on record?
A: 1.9 nM

Q: For B3, which Kd is on record?
A: 0.922 nM

Q: B4 was tested. Which Kd did it give?
A: 0.882 nM

Q: Which Kd does the source give for B5 here?
A: 2.31 nM

Q: Which Kd does the source give for B6 here?
A: 6.61 nM

Q: Which Kd does the source give for B7 here?
A: 0.959 nM

Q: For B8, which Kd is on record?
A: 1.48 nM

Q: For B9, which Kd is on record?
A: 0.906 nM

Q: Which Kd does the source give for B10 here?
A: < 0.001 nM

From patent publication US20240409617A1 (published 2024)
